Earlier results, collected in article PMC5807066.
Where “and” joins values, the source holds several entries; their conditions need not be identical. Equal values may be shown once. Read-outs that look alike come from different tables or passages of the source. Blank lines part the entries; values can stand above or below the substance they belong to.

Legend:
[1] = molecular target: SecA:SecYEG complex (Escherichia coli) (UniProt C4ZRJ3)
[2] = molecular target: SecA (Escherichia coli) (UniProt P10408)
[3] = molecular target: SecA (Escherichia coli) (UniProt P10408); remark: listed apart in the source
[4] = molecular target: SecA (Escherichia coli) (UniProt P10408); remark: listed apart in the source
[5] = molecular target: MBP (unfolded) (Escherichia coli) [MBP: P0AEX9]

Chain of SecA (P10408 whole entry): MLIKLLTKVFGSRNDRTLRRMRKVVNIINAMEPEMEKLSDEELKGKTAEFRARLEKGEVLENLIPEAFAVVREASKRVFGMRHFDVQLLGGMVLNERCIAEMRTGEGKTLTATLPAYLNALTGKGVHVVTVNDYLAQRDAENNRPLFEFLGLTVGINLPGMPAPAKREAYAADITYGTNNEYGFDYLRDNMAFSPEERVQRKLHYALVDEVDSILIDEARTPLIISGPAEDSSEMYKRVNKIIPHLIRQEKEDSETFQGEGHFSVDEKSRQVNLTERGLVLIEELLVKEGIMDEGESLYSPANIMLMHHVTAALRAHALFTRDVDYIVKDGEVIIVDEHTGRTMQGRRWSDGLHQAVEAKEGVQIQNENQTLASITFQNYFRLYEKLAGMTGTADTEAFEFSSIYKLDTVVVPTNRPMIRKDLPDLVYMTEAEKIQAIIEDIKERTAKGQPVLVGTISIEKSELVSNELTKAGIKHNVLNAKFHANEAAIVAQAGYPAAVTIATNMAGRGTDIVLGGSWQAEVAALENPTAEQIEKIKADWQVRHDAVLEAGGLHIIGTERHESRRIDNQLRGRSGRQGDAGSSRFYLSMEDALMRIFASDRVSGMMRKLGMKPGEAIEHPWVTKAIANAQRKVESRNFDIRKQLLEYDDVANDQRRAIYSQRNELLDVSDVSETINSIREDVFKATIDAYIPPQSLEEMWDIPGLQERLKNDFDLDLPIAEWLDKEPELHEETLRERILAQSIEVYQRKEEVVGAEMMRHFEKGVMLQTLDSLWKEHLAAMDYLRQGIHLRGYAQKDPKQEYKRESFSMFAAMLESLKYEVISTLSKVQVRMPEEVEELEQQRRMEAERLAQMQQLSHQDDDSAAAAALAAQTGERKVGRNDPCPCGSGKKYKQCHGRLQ

Kd [1]: 230 nM
Substance: PhoA precursor (from UniProt P00634)

Substance: SecA (from UniProt P10408)
Kd [2]: 100 nM and 1000 nM

Kd [3]: 4000 nM | Kd [4]: 2000 nM | Kd [5]: 30 nM
Substance: SecB (from UniProt P0AG86)
